From patent publication US12064464B2, “Plantaricin NC8 alpha beta markedly enhances the effects of antibiotics” (priority 2018, dated 2024)
Entries after “also recorded” stand apart in the source; their conditions may differ. Like-named read-outs stand apart in the source and are kept apart here.

How the values were obtained:
Escherichia coli = experiment: Broth microdilution MIC/MBC; assay type: cell-based; conditions: for MBC / MIC: peptide alone
From the text: (§1) Staphylococcus aureus CCUG 35601 (MRSA, Culture Collection, University of Gothenburg) and Staphylococcus aureus ATCC 29213 (MSSA, ATCC, Manassas, VA). Staphylococcus epidermidis ATCC 12228 (ATCC, Manassas, VA), RP62A, N15 and 10 clinical isolates of Staphylococcus epidermidis that have previously been characterized. Isolated Escherichia coli, Enterococcus faecium (including VRE), Pseudomonas aeruginosa, Klebsiella pneumoniae, Enterobacter spp and Acinetobacter baumannii were obtained from Orebro University hospital. Isolated Streptococcus mutans, Streptococcus constellatus and Streptococcus anginosus were obtained from Malmo University. The bacteria were grown on Luria-Bertani (LB) agar plates, supplemented with 5% defibrinated horse blood, and incubated at 37° C. overnight. Single colonies were inoculated into 5 ml of LB broth and incubated on a shaker (300 rpm) at 37° C. overnight. The bacterial concentration was determined by viable count and adjusted to correlate with approximately 10^9 CFU/ml.
(§2) The broth microdilution method was used to determine minimal inhibitory concentration (MIC) and minimal bactericidal concentration (MBC). Two-fold serial dilutions of the peptides were used and the final concentrations ranged from 0.097-50 μM. […] The effect of bacteriocin-antibiotic combinations was accomplished by using the same concentration series of antibiotics with a constant concentration of PLNC8 αβ (3.1 μM) in all the wells. […] All experiments were repeated at least three times.

Pseudomonas aeruginosa = experiment: Broth microdilution MIC/MBC; assay type: cell-based; conditions: for MBC / MIC: P. aeruginosa, peptide alone
From the text: as §1, §2

[1] = system: antibiotic resistant bacteria; experiment: Combination of PLNC8 αβ with antibiotics, summary over tested bacteria; assay type: cell-based; conditions: wide range of antibiotics
Experimental: as §2

[2] = system: S. epidermidis ATCC 12228; experiment: Sytox Green uptake (membrane permeabilization); assay type: cell-based, Staphylococcus epidermidis; conditions: 5 μM
Experimental: (§3) The fluorescent dye Sytox® Green, which can only cross damaged membranes and fluoresce upon binding to nucleic acids, was used to study the antimicrobial activity of PLNC8 αβ on S. epidermidis, S. aureus (MSSA, MRSA) and Streptococcus spp. The bacteria were washed and resuspended in Krebs-Ringer Glucose buffer (KRG) (120 mM NaCl, 4.9 mM KCl, 1.2 mM MgSO4, 1.7 mM KH2PO4, 8.3 mM Na2HPO4, and 10 mM glucose, pH 7.3) and incubated in the presence or absence of different combinations of PLNC8 αβ in 96-well microtiter plates for 2 min. Images were captured with Olympus BX41 at 40× magnification.

[3] = system: S. aureus (MSSA and MRSA); experiment: Sytox Green lysis and time-kill assay; assay type: cell-based, Staphylococcus aureus
Experimental: as §3

human erythrocytes = experiment: Hemolysis; assay type: cell-based; conditions: 0.5-50 μM, 1 h; listed as L-PLNC8 αβ
Experimental: The hemolytic activity of the peptides was investigated by collecting blood from healthy volunteers in heparinized vacutainers. The blood was centrifuged at 600×g for 5 min and the erythrocyte pellet was washed three times in PBS. The cells were then suspended in PBS and added to 96-well plates (15% erythrocyte suspension/well), containing the peptides with two-fold serial dilution. The plates were incubated for 1 h at 37° C. followed by centrifugation for 5 min at 900×g and measurement of the supernatants at 540 nm. Haemolytic activity (%) was calculated by subtracting the negative control from all values and normalization against the positive control (0.5% Triton X-100), that was set to 100%. All experiments, each in duplicate, were repeated three times.

[4] = system: S. epidermidis RP62A biofilms; experiment: Bacterial biofilm disruption; assay type: cell-based, Staphylococcus epidermidis; conditions: 1 h
Experimental: S. epidermidis RP62A was inoculated into 5 ml of LB broth and incubated on a shaker at 37° C. overnight. The bacterial culture was diluted 1:100 into fresh media and 100 μl of bacterial suspension per well was added in a 96-well microtiter plate and incubated statically at 37° C. for 20 h. The wells were washed three times by submerging the plate into a container with distilled water to remove unattached cells. Fresh LB media was added to each well (100 μl) followed by addition of the peptides in different concentrations. The plate was incubated statically for 1 h. Detached material in the wells were transferred to a new microtiter plate for absorbance measurements at 620 nm. The remaining attached biofilms were stained with 0.1% crystal violet for 15 min before the plate was washed four times in distilled water as mentioned above and allowed to dry at room temperature for 2 h. The crystal violet was solubilized in 30% acetic acid for 15 min and the absorbance quantified at 550 nm. Each experiment, with three replicates, was repeated three times.

[5] = system: wounds infected with S. aureus; experiment: Porcine wound model; assay type: in vivo, pig; conditions: PLNC8αβ 50 μM, every other day, 7 days
From the text: Three wounds were created per condition with the following conditions: control (PBS), […]/gentamicin and […]8 αβ. […] The pig was returned to the pen and monitored during recovery from anesthesia. […] This procedure was repeated every other day for seven days (a total of four doses of treatment of the infected wounds).

S. epidermidis = experiment: Aggregation and ATP release; assay type: cell-based, Staphylococcus epidermidis
Experimental: Aggregation and extracellular release of ATP were used to study the effects of PLNC8 αβ on the bacteria. ATP was registered using a luciferin/luciferase bioluminescence assay (Sigma, St. Louis, Mo, USA) in bacterial suspensions (2.5×10^8 CFU/ml). The bacteria were exposed to different concentrations of PLNC8 αβ, and real-time changes in light transmission and bioluminescence were recorded in a Chronolog lumi-aggregometer (Chrono-Log, Haverton, PA, USA) for 30 min. The levels of ATP were calculated based on the bioluminescence signals recorded in response to known concentrations of ATP.

Porphyromonas gingivalis = conditions: references 1, 2; cited from earlier work
[6] = ESBL-producing E. coli, first isolate
[7] = ESBL-producing E. coli, second isolate
[8] = Non-ESBL E. coli, first isolate
[9] = Non-ESBL E. coli, second isolate

B1: PLNC8 αβ: two-peptide class IIb bacteriocin of L. plantarum NC8: PLNC8 α (SEQ ID NO 1) with PLNC8 β (SEQ ID NO 2) (peptide)
alpha: DLTTKLWSSWGYYLGKKARWNLKHPYVQF
beta: SVPTSVYTLGIKILWSAYKHRKTIEKSFNKGFYH
modifications: Lactobacillus plantarum NC8
Escherichia coli
  effect of peptide alone on Escherichia coli: permeabilized and killed
  effect of sub-MIC peptide on antibiotics: significantly enhanced the effects of different antibiotics
Escherichia coli; [6]
  MBC: >50 µM
  MIC: >50 µM
Escherichia coli; [7]
  MBC: >50 µM
  MIC: >50 µM
Escherichia coli; [8]
  MBC: >50 µM
  MIC: >50 µM
Escherichia coli; [9]
  MBC: >50 µM
  MIC: >50 µM
Escherichia coli; listed as PLNC8αβ
  effect of peptide alone on Escherichia coli: did not affect the growth; also recorded: does not affect the growth
Pseudomonas aeruginosa
  effect of peptide alone on Pseudomonas aeruginosa: permeabilized and killed
  effect of sub-MIC peptide on antibiotics: enhanced the effects of different antibiotics
Pseudomonas aeruginosa; first isolate
  MBC: >50 µM
  MIC: >50 µM
Pseudomonas aeruginosa; second isolate
  MBC: >50 µM
  MIC: >50 µM
Pseudomonas aeruginosa; listed as PLNC8αβ
  effect of peptide alone on Pseudomonas aeruginosa: did not affect the growth; also recorded: does not affect the growth
[1]
  enhancement of the effects of antibiotics: 2-130 fold
[2]
  perturbation of the plasma membrane of S. epidermidis: equally rapid (2 min)
[3]
  lysis and killing of S. aureus: dose-dependently and rapidly lysed and killed S. aureus
Human erythrocytes
  hemolytic activity: no hemolytic activity was observed; also recorded: low hemolytic activity
[4]
  disruption of biofilms: efficiently disrupted the biofilms and killed the bacteria
[5]
  infection and wound healing in vivo: inhibited infection and promoted wound healing in vivo
S. epidermidis
  release of ATP (bacterial lysis): dose-dependent release of ATP
S. epidermidis; low concentrations
  aggregation of bacteria: bacteria aggregates when exposed to low concentrations
Porphyromonas gingivalis
  activity against Porphyromonas gingivalis: efficient against the periodontal pathogen Porphyromonas gingivalis
